Source: patent US8114412B2, “T. cruzi-derived neurotrophic agents and methods of use therefor” (priority 1999, dated 2012)
Entries after “also recorded” stand apart in the source; their conditions may differ.

Legend:
[1] = tested on: PC12 cells; assay: Neurite outgrowth assay in PC12 cells; assay type: cell-based, rat; conditions: neurite outgrowth assay, concentration not given
From the text: (§1) PC12 cells were obtained from ATCC (Manassas, Va. (Accession No. CRL-1721)) and cultured on collagen-coated dishes in RPMI 1640 supplemented with 10% horse serum and 5% fetal bovine serum (Greene, L. A. and Tishler, A. S., Proc. Natl. Acad. Sci. USA, 73: 2424-2428 (1976)). For differentiation and survival experiments, cells were washed three times in serum-free RPMI/0.2% BSA, plated in the same medium in collagen-coated plastic dishes at 2×10^5/ml, without and with growth factors, TS, recombinant proteins, synthetic peptides, for the time and concentrations indicated in the Figures.
(§2) 96-well microtiter plates were coated overnight at 4° C. with the TS or peptides or fragments thereof, or with control proteins laminin (Ln) or bovine serum albumin (BSA) at 500 μg/ml. After removing the compounds, the plates were further incubated with 1% BSA for 1 hour at room temperature and immediately used as substratum for PC12 or N18 (Prasad, K. N., Biol Rev Camb Philos Soc, 66:431-451 (1991)) cells in serum-free RPMI/0.2% BSA. Neurite outgrowth was measured using a phase-contrast microscope 17 hours later.

[2] = tested on: peripheral blood mononuclear cells (PBMC); assay: IL-6 secretion by PBMC (ELISA); assay type: cell-based, human; parameters: IL-6 secretion by PBMC: dose or concentration left out as unconfirmed; conditions: 24 hrs culture
Protocol: (§3) Primary cultures of human intestinal microvascular endothelial cells (HIMEC) isolated from normal jejunal mucosa/submucosal tissue were prepared as described (Strong et al., Gastroenterology 114: 1244-1256 (1998)). The HIMEC were cultured in fibronectin-coated plasticware in MCDB medium (Sigma) supplemented with 20% FBS, 90 μg/ml heparin and 50 μg/ml endothelial cell growth factor (Sigma). T-24 cells (ATCC Accession No. HTB-4) were cultured in M199 medium supplemented with 10% FBS. PBMC were purified by Ficoll-Paque gradient as described (Current Protocols in Immunology, pp 7.1.1-7.1.2). Vero cells (ATCC Accession No. CCL-81) were grown in RPMI medium with 5% Nu serum and infected with the Silvio X-10/4 of T. cruzi as described previously (Chuenkova et al., J. Exp. Med. 181: 1693-1703, (1995)).
(§4) Endothelial cells and T-24 cells were plated on 24-well plates at a density of 1×10^3 cells/well, while peripheral blood mononuclear cells (PBMC) were plated in the similar wells at 1×10^6/well. Triplicat cultures of cells were incubated test agents for a predetermined amount of time. […] Cytokines and chemokines released in the culture supernatants were measured by ELISA assay following the instructions of the manufacturer (Endogen). The cytokines tested were IL-1β, IL-4, IL-8, IL-10, IL-12, IFN-γ, TNF-α, and the chemokines RANTES and MCP-1. Negative controls were cells incubated in medium containing polymixin B at 10 μg/ml, and positive controls were cells incubated with bacterial LPS at the low ng/ml range (for PBMC or HIMEC) or in the μg/ml range for carcinoma T-24 cells. In some experiments, IL-1β, or TNFα were used as positive control for cytokine release.
TR peptides (Table 2) were synthesized at the Tufts Synthesis Facility (Boston, Mass.). Each peptide was purified by HPLC, and the number of amino acids and molecular weight of each peptide verified by mass spectrometry. Peptides were dissolved in growth medium (10% FCS in RPMI) and added at various concentrations to 1×10^6 PBMC/well in 24-well plates. After 24 hrs, IL-6 was assayed by ELISA in the conditioned supernatants.

[3] = Trans-sialidase assay; assay type: biochemical
Protocol: The trans-sialidase assay was performed as described (Scudder et al., J. Biol. Chem. 268:9886-9891 (1993)) with slight modifications. Various amounts of intact enzyme or enzyme fragments were added to 50 mM PBS, Ph 7.2, containing 15% fetal calf serum and […] of [^14C]N-acetyllactosamine (4×10^5 dpm), 50 μg BSA and 0.02% NaN3 in a volume of 60 μl. After incubation for a predetermined amount of time at room temperature, the reaction mixture was diluted to 1.0 ml with distilled water and applied to a column containing 1.0 ml Q-Sepharose equilibrated with water. Sialylated product was eluted with 1 M NaCi and quantified by scintillation counting.
TS enzymatic activity was measured by the sialylation of the acceptor ^14C-labeled N-acetyllactosamine on anion exchange resins (Scudder, P. et. al., J. Biol. Chem. 268:9886-9891 (1993)). Recombinant TSA-1, was expressed on insect sf9 cells and purified from serum-free medium by ion exchange chromatography (monoQ) and preparative SDS-PAGE (Wrightsman, R. A. et al., J. Immunol., 153:3148-3154 (1994).

[4] = tested on: human bladder carcinoma T-24 cell line; assay: IL-6 secretion by T-24 carcinoma cells (ELISA); assay type: cell-based; conditions: 24 hours culture
Protocol: as §3, §4

[5] = tested on: N18 cells; assay: Neurite outgrowth assay in N18 cells; assay type: cell-based; conditions: immobilized proteins coated at 500 μg/ml, 17 hours (FIG. 3A)
Protocol: FIG. 3A is a graph showing that neurite outgrowth in N18 cells is induced by immobilized laminin (Ln), immobilized TS and immobilized fragments of TS. Proteins were immobilized by incubating plates which contained wells filled with solutions of the proteins (protein concentration was 500 μg/ml) at 4° C. overnight. The protein solutions were removed and the plates were further incubated with 1% BSA at room temperature for one hour. N18 cells were cultured in the coated wells in serum-free RPMI-1640/0.2% BSA for 17 hours, and neurite outgrowth was measured by phase-contrast microscopy. […] Ln, laminin; TS, purified T. cruzi trans-sialidase; 7F, recombinant TS from clone 7F; 19Y, recombinant TS from clone 19Y; TS-F, recombinant fragment consisting of amino acid residues 33-666 of TS (SEQ ID NO:2); TS-CC-47, recombinant fragment consisting of amino acid residues 79-478 of TS (SEQ ID NO:2); TS-Cat-47, recombinant fragment consisting of amino acid residues 79-415 of TS (SEQ ID NO:2); BSA, bovine serum albumin.
as §2

[6] = tested on: PC12 cells; assay: Trophic factor withdrawal-induced apoptosis of PC12 cells (DAPI/TUNEL); assay type: cell-based, rat; conditions: serum-free RPMI-1640/0.2% BSA, 17 hours, DAPI or TUNEL
From the text: as §1
Cell staining with 4,6-diamino-2-phenylindole (DAPI). Cells were fixed with 4% formaldehyde in PBS for 5 minutes, washed with PBS, stained with 10 μg/ml DAPI (Sigma) for 2 minutes, washed with PBS, and visualized under UV light using a fluorescent microscope. About 300-400 cells were examined under the microscope to determine the percentage of apoptotic cells.
Cell DNA nick end labeling (TUNEL) (Gavrieli, Y., et al., J. Cell. Biol. 119: 493-501 (1992)) assay was performed using a kit purchased from Boehringer Mannheim as described by the manufacturer.
Protection against apoptosis of PC12 cells in serum-free medium containing a test agent (agent N)(e.g., protection induced by TS, TS fragments, NGF or other growth factors), was calculated by the formula: 100%-[(apoptosis(%) of cells kept in RPMI containing test agent N÷apoptosis (%) of cells kept in RPMI)×100%]. Testing the effect of wortmannin (Sigma) and LY294002 (Sigma) in inhibiting the neuroprotection of TS was performed following the protocol described by others (Yao and Cooper, Science, 267:2003-2006 (1995); D'Mello et al., J. Neurosci 17:1548-1560 (1997)). In brief, PC12 cells were switched from growth medium to RPMI without and with TS or various other growth factors. After 24 hr, wortmannin and LY294002 were added to the cultures. After another 24 hrs, cells were examined for apoptosis by the DAPI assay, as above.

B1: cruzipain: T. cruzi protease (protein, UniProt P25779 123-467, looked up)
Cruzipain: APAAVDWRARGAVTAVKDQGQCGSCWAFSAIGNVECQWFLAGHPLTNLSEQMLVSCDKTDSGCSGGLMNNAFEWIVQENNGAVYTEDSYPYASGEGISPPCTTSGHTVGATITGHVELPQDEAQIAAWLAVNGPVAVAVDASSWMTYTGGVMTSCVSEQLDHGVLLVGYNDSAAVPYWIIKNSWTTQWGEEGYIRIAKGSNQCLVKEEASSAVVGGPGPTPEPTTTTTTSAPGPSPSYFVQMSCTDAACIVGCENVTLPTGQCLLTTSGVSAIVTCGAETLTEEVFLTSTHCSGPSVRSSVPLNKCNRLLRGSVEFFCGSSSSGRLADVDRQRRHQPYHSRHRRL
neurite outgrowth in PC12 cells [1]: did not induce neurite extension

B2: TS-H32 (protein, listed as Trypanosoma cruzi)
chain: KKKQVFSKIFYSEDDGKTWKFGEGRSAFGCSEAVALEWEGKLIINTRVDYRRRLVYESSDMGNTWLEAVGTLSRVWGPSPKSNQPGSQSSFTAVTIEGMRVMLFTHPLNFKGRWLRDRLNLWLTDNQRIYNVGQVSIGDENSAHSSVLYKDDKLYCLHEINSNEVYSLVFARLVGELRIIKSVLQSWKNWDSHLSSICTP
IL-6 secretion by PBMC [2]: stimulating IL-6 secretion
trans-sialidase enzymatic activity [3]: enzymatically-inactive
IL-6 secretion by T-24 cells [4]: stimulating IL-6 secretion

B3: TS-CC-47: recombinant fragment consisting of amino acid residues 79-478 of TS (SEQ ID NO:2) (protein, listed as Trypanosoma cruzi)
chain: MVAIADARYDTSNDNSLIDTVAKYSVDDGETWETQIAIKNSRVSSVSRVVDPTVIVKGNKLYVLVGSYYSSRSYWSSHGDARDWDILLAVGEVTKSTAGGKITASIKWGSPVSLKKFFPAEMEGMHTNQFLGGAGVAIVASNGNLVYPVQVTNKKKQVFSKIFYSEDDGKTWKFGKGRSDFGCSEPVALEWEGKLIINTRVDWKRRLVYESSDMEKPWVEAVGTVSRVWGPSPKSNQPGSQSSFTAVTIEGMRVMLFTHPLNFKGRWLRDRLNLWLTDNQRIYNVGQVSIGDENSAYSSVLYKDDKLYCLHEINTDEVYSLVFARLVGELRIIKSVLRSWKNWDSHLSSICTPADPAASSSESGCGPAVTTVGLVGFLSGNASQNVWEDAYRCVNASTAN
neurite outgrowth in N18 cells [5]: did not substantially reduce neurite outgrowth; also recorded: active
protection of PC12 cells from apoptosis induced by trophic factor withdrawal [6]: active

B4: TS-F-47: recombinant TS fragment, amino acid residues 79-666 of SEQ ID NO:34 (protein, listed as Trypanosoma cruzi)
chain: GDARDWDILLAVGEVTKSTAGGKITASIKWGSPVSLKKFFPAEMEGMHTNQFLGGAGVAIVASNGNLVYPVQVTNKRKQVFSKIFYSEDDGKTWKFGKGRSDFGCSEPVALEWEGKLIINTRVDWKRRLVYESSDMEKPWVEAVGTVSRVWGPSPKSNQPGSQTSFTAVTIEGMRVMLFTHPLNFKGRCVRDRLNLWLTDNQRIYNVGQVSIGDENSAYSSVLYKDDKLYCLHEINTDEVYSLVFARLVGELRIIKSVLRSWKNWTATCPAFAPLLIQPLRRQRVVVVPLSPRLVLLAFCRQRLPKRMGGSYRCVNASTANAERVRNGLKFAGVGGGALWPVSQQGQNQRYRFANHAFTLVASVTIHEAPRAASPLLGASLDSSGGKKLLGLSYDEKHQWQPIYGSTPVTPTGSWETGKRYHLVLTMANKIGSVYIDGELLEGSGQTVVPDGRTPDISHFYVGGYKRSDMPTISHVTVNNVLLYNRRQLNTEEIRTLFLSQDLIGTEAHMDSSSDSSAHSTPSTPADSSAHSTPSTPVDSSAHSTPSTPADSSAHGTPSTPVDSSAHGTPSTPADSSAHGTPSTPVDS
neurite outgrowth in N18 cells [5]: as effective as the native enzyme in stimulating neurite outgrowth; also recorded: active
trans-sialidase enzymatic activity [3]: enzymatically inactive
protection of PC12 cells from apoptosis induced by trophic factor withdrawal [6]: active

B5: TS-Cat-47: recombinant fragment consisting of amino acid residues 79-415 of TS (SEQ ID NO:2) (protein, listed as Trypanosoma cruzi)
chain: MVAIADARYDTSNDNSLIDTVAKYSVDDGETWETQIAIKNSRVSSVSRVVDPTVIVKGNKLYVLVGSYYSSRSYWSSHGDARDWDILLAVGEVTKSTAGGKITASIKWGSPVSLKKFFPAEMEGMHTNQFLGGAGVAIVASNGNLVYPVQVTNKKKQVFSKIFYSEDDGKTWKFGKGRSDFGCSEPVALEWEGKLIINTRVDWKRRLVYESSDMEKPWVEAVGTVSRVWGPSPKSNQPGSQSSFTAVTIEGMRVMLFTHPLNFKGRWLRDRLNLWLTDNQRIYNVGQVSIGDENSAYSSVLYKDDKLYCLHEINTDEVYSLVFARLVGELRIIKSVL
neurite outgrowth in N18 cells [5]: inactive in stimulating neurite outgrowth
neurite outgrowth in PC12 cells [1]: did not promote neurite outgrowth
protection of PC12 cells from apoptosis induced by trophic factor withdrawal [6]: promoted the survival of the PC12 cells
